Test results from patent US7479478B2, “Human parathyroid hormone modifications, preparation and use” (The General Hospital Corporation, priority 1998, dated 2009).
Entries after “also recorded” stand apart in the source; their conditions may differ. One block for each substance: values may come before it. No end group written: not given here.

Experiments:
human PTH-1 receptors [1] = target: T1, human PTH-1 receptors (Homo sapiens, UniProt Q03431); assay: PLC activation (IP3 formation) in HKRK B7 cells; format: cell-based; conditions: for PLC activation, percent of basal: 1000 nM peptide; for EC50: read-out: EC50 for PLC activation (IP3 formation); for PLC activation (IP3 formation), result in words: up to 1000 nM or 10 μM; for IP3 Formation (% Maximum): % of maximal response to hPTH-(1-34)
T1 construct: expressed in transfected cells
T1 sequence (Q03431 27-593): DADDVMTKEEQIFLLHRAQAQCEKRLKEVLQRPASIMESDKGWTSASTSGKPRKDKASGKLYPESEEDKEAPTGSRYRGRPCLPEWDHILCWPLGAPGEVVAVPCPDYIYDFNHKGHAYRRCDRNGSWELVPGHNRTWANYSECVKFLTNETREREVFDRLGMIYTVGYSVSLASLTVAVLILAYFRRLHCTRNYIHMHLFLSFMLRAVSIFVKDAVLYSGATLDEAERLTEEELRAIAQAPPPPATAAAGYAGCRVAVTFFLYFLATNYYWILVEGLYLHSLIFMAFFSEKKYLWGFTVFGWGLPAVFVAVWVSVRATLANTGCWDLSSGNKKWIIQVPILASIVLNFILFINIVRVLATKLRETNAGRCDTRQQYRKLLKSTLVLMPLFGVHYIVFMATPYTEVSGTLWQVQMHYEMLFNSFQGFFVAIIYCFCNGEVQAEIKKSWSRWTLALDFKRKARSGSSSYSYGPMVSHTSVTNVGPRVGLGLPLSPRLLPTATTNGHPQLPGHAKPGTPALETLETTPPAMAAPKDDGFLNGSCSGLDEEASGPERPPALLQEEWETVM
Experimental: (§1) HKRK B7 or EW5 cells (32), subclones of LLC-PKI renal epithelial cells that stably express human or rat PTH-1 receptors (950,000 and 320,000 receptors/cell, respectively), were maintained under 5% CO2 in air in Dulbecco's modified essential medium containing 7% fetal bovine serum (FBS) and 1% penicillin/streptomycin (GIBCO-BRL, Grand Island, N.Y.). HEK-293 and COS-7 cells were cultured similarly, except that 10% FBS was used in the medium. Cells were seeded into 24-well plates two days before assay at a density of 2-2.5×10^5 cells/well (HKRK B7 or EW 5 cells) or 6×10^5 cells/well (in 6-well plates) (HEK-293 cells). In experiments involving HEK-293 cells, DNA transfections were performed 24 hr after plating and inositol radiolabel was added 24 hr thereafter (see below). COS-7 cell transfections were performed as previously described (Gardella, T. J., et al., Endocrinology 132(5):2024-2030 (1993))
PLC was activated by PTH agonists in the presence of 30 mM LiCl at 37° C. for 30 min after 16 hr of labeling with [^3H]myo-inositol (3 uCi/ml) in serum-free medium containing 0.1% bovine serum albumin. The reactions were stopped by rapid aspiration and addition of cold 5% TCA. Water-soluble radiolabeled inositol trisphosphate (IP3) was isolated after ether extraction by ion-exchange chromatography (Guo, J., et al., Endocrinology 136(9):3884-3891 (1995)). In experiments involving HEK 293 cells, cells previously transfected with human PTHR cDNA (in the pcDNA1 expression vector HKRK) using Lipofectamine (Gibco BRL) were labeled with [^3H]myo-inositol and assayed as described above, except that total water-soluble [^3H]inositol polyphosphates were collected as a single fraction from the ion-exchange columns.

human PTH-1 receptors [2] = target: T1, human PTH-1 receptors; assay: Intracellular cAMP accumulation (adenylyl cyclase, AC, activation) in HKRK B7 cells; format: cell-based; conditions: for AC activation (cAMP accumulation), result in words: HKRK B7 cells, compared with hPTH-(1-34) or parent peptide; for Cyclic AMP accumulation (% Maximum): % of maximal response to hPTH-(1-34), HKRK B7
Experimental: as §1, with “(1993)) Intracellular cAMP accumulation, PLC activation and PTHR binding affinity were measured as previously reported (Bringhurst, F. R., et al., Endocrinology 132(5):2090-2098 (1993); Guo, J., et al., Endocrinology 136(9):3884-3891 (1995)). Intracellular cAMP accumulation was measured in extracts of cells that were exposed to human PTH peptides in the presence of isobutylmethyxanthine (IBMX, 1 mM) at 37° C. for 15 min. After terminating the reactions by aspiration and freezing in liquid nitrogen, cell monolayers were extracted with 50 mM HCl and cAMP was measured using a radioimmunoassay kit (Dupont-New England Nuclear, Boston, Mass.).” for “(1993))”

human PTH-1 receptors [3] = target: T1, human PTH-1 receptors; assay: Radioligand competition binding with 125I-[Nle8,21,Tyr34]rat PTH-(1-34) in HKRK B7 cells
Experimental: as §1, with “(1993)) Radioligand competition binding assays were performed at 2-8° C. for 6 hr using ^125I-[Nle^8,21,[…]]rat PTH-(1-34) (100,000 cpm/well) in the presence or absence of non-radioactive hPTH-(1-34) analogs. Cell layers were washed three times before solubilization for determination of cell-associated radioactivity.” for “(1993))”

membrane-bound PKCs = conditions: osteoblast-like ROS 17/2 cells; Neugebauer et al. 1995; cited from earlier work
human PTH-1 receptors [4] = target: T1, human PTH-1 receptors; conditions: HKRK B7 cells; Takasu and Bringhurst 1998; cited from earlier work
human PTH-1 receptors [5] = target: T1, human PTH-1 receptors; conditions: HKRK B7 cells; Takasu and Bringhurst 1998; cited from earlier work; remark: listed apart in the source

Substance: [Ala^1]hPTH-(1-34): hPTH-(1-34) with Ala^1 for Ser^1 [reference compound]
- AC activation (cAMP accumulation), result in words (human PTH-1 receptors [2]): indistinguishable from hPTH-(1-34)
- PLC activation (IP3 formation), result in words (human PTH-1 receptors [1]; HKRK B7 cells): indistinguishable from hPTH-(1-34)
- binding affinity, result in words (human PTH-1 receptors [3]): indistinguishable from hPTH-(1-34)

Substance: [Gly^1]hPTH-(1-34): hPTH-(1-34) with Gly^1 for Ser^1 [reference compound]
- AC activation (cAMP accumulation), result in words (human PTH-1 receptors [2]): unchanged
- PLC activity as % of the hPTH-(1-34) maximum (human PTH-1 receptors [1]; 1000 nM, highest concentration tested, HKRK B7 cells): 25%
- binding affinity, result in words (human PTH-1 receptors [3]): unchanged

Substance: [Tyr^0]hPTH-(1-34): hPTH-(1-34) with a tyrosine residue interposed at the N-terminus; purchased from Sigma (YSVSEIQLMHNLGKHLNSMERVEWLRKKLQDVHNF) [reference compound]
- PLC activation, percent of basal (human PTH-1 receptors [1]; HKRK B7 cells): 105±5% of basal

Substance: SerValSerGluIleGlnLeuMetHisAsnLeuGlyLysHis LeuAsnSerMetGluArgValGluTrpLeuArgLysLys (SVSEIQLMHNLGKHLNSMERVEWLRKK-NH2; listed as Homo sapiens) [hPTH-(1-27)]
- stimulation of activity of membrane-bound PKCs (membrane-bound PKCs): incapable of stimulating

Substance: hPTH-(1-26): C-truncated human PTH peptide (SVSEIQLMHNLGKHLNSMERVEWLRK)
- stimulation of activity of membrane-bound PKCs (membrane-bound PKCs): incapable of stimulating

Substance: hPTH-(1-30): C-truncated human PTH peptide (SVSEIQLMHNLGKHLNSMERVEWLRKKLQD-NH2; UniProt P01270 32-61, looked up, fragment)
- AC activation, previously reported (human PTH-1 receptors [4]): fully activated
- PLC activation, previously reported (human PTH-1 receptors [5]): fully activated
- stimulation of activity of membrane-bound PKCs (membrane-bound PKCs): incapable of stimulating

Substance: hPTH-(1-31): C-truncated human PTH peptide
- AC activation, previously reported (human PTH-1 receptors [4]): fully activated
- PLC activation, previously reported (human PTH-1 receptors [5]): fully activated

Substance: AVSEIQLMHNLGKHLNSMRRVEWLRKK [[Ala^1,Arg^19]hPTH-(1-27)]
- Cyclic AMP accumulation (% Maximum) (human PTH-1 receptors [2]; 0.01 nM): −0.2 ± 0.1 % Maximum
- Cyclic AMP accumulation (% Maximum) (human PTH-1 receptors [2]; 0.1 nM): 0.6 ± 0.3 % Maximum
- Cyclic AMP accumulation (% Maximum) (human PTH-1 receptors [2]; 1 nM): 7 ± 0.6 % Maximum
- Cyclic AMP accumulation (% Maximum) (human PTH-1 receptors [2]; 10 nM): 50 ± 5.1 % Maximum
- Cyclic AMP accumulation (% Maximum) (human PTH-1 receptors [2]; 100 nM): 92 ± 15 % Maximum
- Cyclic AMP accumulation (% Maximum) (human PTH-1 receptors [2]; 1000 nM): 99 ± 8.8 % Maximum
- IP3 Formation (% Maximum) (human PTH-1 receptors [1]; 1000 nM, HKRK B7): 1.5 ± 4.8 % Maximum
- IP3 Formation (% Maximum) (human PTH-1 receptors [1]; 10000 nM, HKRK B7): 6.9 ± 10 % Maximum

Now from value to substance, other results behind:

- PLC activation, percent of basal (human PTH-1 receptors [1]; HKRK B7 cells): 101±6% of basal
Substance: desamino-hPTHrP(1-36): hPTHrP(1-36) with the α-amino group removed [reference compound]

- PLC activation, percent of basal (human PTH-1 receptors [1]; HKRK B7 cells): 178±12% of basal
Substance: hPTHrP(1-36): human PTH-related peptide fragment 1-36 [reference compound]

- AC activation (cAMP accumulation), result in words (human PTH-1 receptors [2]): unaffected
- EC50 (human PTH-1 receptors [1]; HKRK B7 cells): 300 nM
- PLC activation (IP3 formation), result in words (human PTH-1 receptors [1]; HKRK B7 cells): maximally activated
- IC50 (human PTH-1 receptors [3]; read-out: apparent IC50 for binding): 100 nM
Substance: SVSEIQLMHNLGKHLNSMRRVEWLRKKL-NH2 [[Arg^19]hPTH-(1-28)]

- AC activation (cAMP accumulation), result in words (human PTH-1 receptors [2]): nearly identical
Substance: hPTH-(1-25): C-truncated human PTH peptide (SVSEIQLMHNLGKHLNSMERVEWLR)

- EC50 (human PTH-1 receptors [1]; HKRK B7 cells): 200 nM
- fold improvement of EC50 for PLC activation by the Arg^19 modification (human PTH-1 receptors [1]; over [Ala^1]hPTH-(1-28), HKRK B7): 5 fold
Substance: AVSEIQLMHNLGKHLNSMRRVEWLRKKL-NH2 [[Ala^1,Arg^19]hPTH-(1-28)]
- AC activation (cAMP accumulation), result in words (human PTH-1 receptors [2]): indistinguishable from that of hPTH-(1-34)

- EC50 (human PTH-1 receptors [1]; HKRK B7 cells): 1000 nM
Substance: AVSEIQLMHNLGKHLNSMERVEWLRKKL-NH2 [[Ala^1]hPTH-(1-28)]

- binding affinity, result in words (human PTH-1 receptors [3]): modestly impaired
Substance: GlyValSerGluIleGInLeuMetHisAsnLeuGlyLysHisLeuAsnSerMetGluArgVal GluTrpLeuArgLysLysLeu (GVSEIQLMHNLGKHLNSMERVEWLRKKL; listed as Homo sapiens) [[Gly^1]hPTH-(1-28)]
- PLC activation (IP3 formation), result in words (human PTH-1 receptors [1]; HKRK B7 cells): selectively eliminated PLC signaling, apart from a weak response at 10 μM

- PLC activation (IP3 formation), result in words (human PTH-1 receptors [1]; HKRK B7 cells): did not elicit PLC activity
Substance: hPTH-(2-34): hPTH-(1-34) lacking residue 1 (VSEIQLMHNLGKHLNSMERVEWLRKKLQDVHNY) [reference compound]
- AC activation (cAMP accumulation), result in words (human PTH-1 receptors [2]): comparable in magnitude and sensitivity to that of hPTH-(1-34); also recorded: equipotent with hPTH-(1-34)

- AC activation (cAMP accumulation), result in words (human PTH-1 receptors [2]): only minimally active
Substance: hPTH-(1-24): C-truncated human PTH peptide (SVSEIQLMHNLGKHLNSMERVEWL)
